Entries after “also recorded” stand apart in the source; their conditions may differ. Square brackets hold non-standard residues; d marks the D form. Ends that are not written are not given here. pS = N[C@@H](COP(=O)(O)O)C(=O)O
Tests used:
[1] = test system: mossy fiber synapses of hippocampal CA3 pyramidal neurons; test: Mossy fiber LTP, whole-cell patch clamp in hippocampal slices; assay type: cell-based, mice; settings: for LTP (potentiation of the EPSC after tetanic stimulation): peptide 50 μM in patch electrode (postsynaptic), 25 to 30 minutes after tetanic stimulation; for LTP PPR (paired pulse ratio after LTP induction) / control PPR (paired pulse ratio before LTP induction): 40 ms interval; for effect on tetanus induced LTP: peptide in patch electrode (postsynaptic); for LTP (potentiation of EPSCs after tetanic stimulation): bath application 5 μg/ml
Protocol: The role of the GluR2 subunit in LTP at mossy fiber terminals was evaluated in whole cell patch clamp experiments using hippocampal CA3 pyramidal neurons. Briefly, transverse hippocampal slices (350 μm) were made from P12-18 mice (strain 129SvEv) as previously described (Contractor et al., Neuron 29, 209-16. (2001)). Slices were transferred to a recording chamber, and whole-cell patch clamp recordings made from visually identified pyramidal cells in the CA3 region of the hippocampus. The recording electrode (i.e., patch electrode) is filled with an “internal” solution described below. A seal between the glass of the electrode and the membrane of the cell is made. The seal is then “broken through” by pushing the electrode through the membrane to gain low resistance access to the cell interior and enable voltage clamping of the cell membrane. This also allows dialysis of the cell with test reagents such as peptides and antibodies. A stimulating electrode is attached to a current source and allows current to stimulate action potentials while a reference electrode is placed in the recording bath. The composition of the internal solution was: 95 mM CsF, 25 mM CsCl, 10 mM Cs-HEPES, 10 mM Cs-EGTA, 2 mM NaCl, 2 mM Mg-ATP, 10 mM QX-314, 5 mM TEA-Cl, 5 mM 4-AP, pH adjusted to 7.3 with CsOH.
Peptides were added directly to the internal solution on the day of the experiment from frozen stocks in protease inhibitors made up in phosphate buffered saline (PBS). To avoid leakage of peptides or antibodies into the extracellular space, pipette tips were filled with normal internal solution and then the pipette was backfilled with peptide/antibody containing internal fluid. The final concentration of peptides was 50 μM in all experiments. The final concentration of protease inhibitors were: bestatin 2 μg/ml, leupeptin 25 ng/ml, pepstatin 35 ng/ml, aprotinin 100 ng/ml.
In control experiments where peptides were not included, internal solutions were made up in exactly the same way with protease inhibitors in PBS but lacking any added peptide. Antibodies were made up in PBS stock and added directly to the internal solution at a final concentration of 20 μg/ml. The pH and osmolarity of all internal solutions were checked before use. Series resistances (Rs) were generally <10M and were continuously monitored throughout the duration of the experiment. […] Experiments using mutant mice were performed with heterozygous breedings blind to the genotype of the animal.
Mossy fiber EPSCs were evoked with a monopolar glass electrode positioned in the stratum lucidum. EPSCs were evaluated using a 40 ms interval between recordings. All recordings were made in the continuous presence of bicuculline (10 μM), picrotoxin (50 μM) and the NMDA receptor antagonist D-AP5 [D(-)-2-Amino-5-phosphonopentanoic acid; 50 μM]. The group II mGluR agonist, LCCG-1 (10 μM), which selectively depresses mossy fiber transmission, was applied at the end of each experiment. LTP was induced by tetanic stimulation comprising three 1 s stimulations (100 Hz) with a 10 s interval. Data are presented as mean±SEM. Parameters were compared using the Student's unpaired t-test where not specified, and the K-S test, p<0.05 was considered significant.
Cumulative probability is determined by ranking the EPSC data set from the highest to the lowest value from 20 to 30 minutes post tetanization. Each point is graphed with its corresponding percentile. […] The lowest LTP value was about 40% signified by the lowest point on the 1 st graph (open circles) and the largest LTP was about 160%.

[2] = test system: mossy fiber synapses of hippocampal CA3 pyramidal neurons; test: Forskolin-mediated potentiation of mossy fiber EPSCs; assay type: cell-based, mice; settings: for forskolin potentiation of mossy fiber EPSCs after pre-application of Fc fusion protein: Fc fusion protein bath applied before forskolin; for effect on forskolin enhancement / mossy fiber transmission: bath application
GRIP PDZ4-6 = molecular target: T1, GRIP PDZ4-6 (Rattus norvegicus, UniProt P97879); test: Competitive binding of 35S-EphB2 to His-GRIP-PDZ4-6; settings: concentrations of up to 10 μM peptide; listed as GluR2ctPO4
T1 construct: corresponding to GRIP1 (amino acid 448-792); made in house; host or cells: E. coli BL21
T1 sequence (P97879 448-792): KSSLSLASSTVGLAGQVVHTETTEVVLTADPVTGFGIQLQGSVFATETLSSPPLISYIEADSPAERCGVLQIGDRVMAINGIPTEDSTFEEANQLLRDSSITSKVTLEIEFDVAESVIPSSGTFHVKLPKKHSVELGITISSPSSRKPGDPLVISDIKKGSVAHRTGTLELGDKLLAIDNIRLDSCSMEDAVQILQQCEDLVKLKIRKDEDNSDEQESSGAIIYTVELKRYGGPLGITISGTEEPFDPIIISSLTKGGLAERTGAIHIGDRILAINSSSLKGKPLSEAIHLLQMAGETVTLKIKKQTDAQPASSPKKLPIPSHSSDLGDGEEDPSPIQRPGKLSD
Protocol: A competitive binding assay was prepared to determine if the LTP inhibitory effects of the GluR2ct peptide were mediated through disruption of binding between Eph receptors and PDZ domain 6 of GRIP (Torres et al., Neuron 21, 1453-63. (1998)) as opposed to disruption of binding between the GluR2 subunit and the GluR2-binding PDZ 4 and 5 domains of GRIP (Dong et al., Nature 386, 279-84. (1997)). For this purpose, a binding assay was established between GRIP PDZ domain fragments (His-GRIP-PDZ4-6) and an EphB2 carboxy terminal fusion protein labeled with ^35S-methionine (^35S-EphB2).
Briefly, the carboxy terminal region of EphB2 corresponding to mouse EphB2 receptor (amino acid 930-993) was generated by PCR from mouse brain library and subcloned into pGEX2TK (Pharmacia). The GRIP(PDZ4-6) construct, corresponding to GRIP1 (amino acid 448-792) was obtained by PCR from an adult rat hippocampal library and subcloned into pRSET vector. E coli (strain BL21) were transformed with His-GRIP(PDZ4-6) and GST-EphB2 and protein production induced with IPTG. GST-EphB2 protein was purified on glutathionine beads and ^35S-EphB2 cleaved from GST with thrombin (1 U/μg). GRIP(PDZ4-6) protein was purified on Ni-NTA agarose, and eluted with imadazole. ^35S-EphB2 (50 nM) was incubated with (15 μg) of His-GRIP(PDZ4-6) protein in PBS buffer with protease inhibitors for 2 hrs at 22° C. in the absence or presence of peptides. ^35S-EphB2 binding to His-GRIP(PDZ4-6) was determined after a 45 min incubation with Ni-NTA agarose and vacuum filtration onto Whatman GFB filter circles (pretreated with 3% BSA). Filters were washed with ice-cold PBS buffer, allowed to equilibrate overnight in ECOLUME scintillation cocktail (ICN pharmaceuticals, Irvine Calif.), and specific counts measured in a scintillation counter. Non-specific binding was defined as the residual binding measured in the absence of His-GRIP(PDZ4-6).

[3] = molecular target: presynaptic ephrin-B ligands; test: cell-based or functional assay
[4] = peptide 50 μM in patch electrode
[5] = Fc fusion protein, bath application

Molecule: N[C@H](C(=O)O)[C@H]1C[C@@H]1C(=O)O [LCCG-1, (2S,1′S,2′S)-2-(carboxycyclopropyl)glycine, reference compound]
- effect on mossy fiber EPSC ([1]; applied at the end of each experiment, 10 μM): caused inhibition of the EPSC

Molecule: C=C[C@@]1(C)CC(=O)[C@]2(O)[C@@]3(C)[C@@H](O)CCC(C)(C)[C@@H]3[C@H](O)[C@H](OC(C)=O)[C@@]2(C)O1 [forskolin, reference compound]
- potentiation of mossy fiber EPSCs by forskolin ([2]; bath application of forskolin alone, 20-30 minutes after application): 275±38%

Molecule: LHLHGTGIQV [EphA7 peptide, reference compound]
- LTP (potentiation of the EPSC after tetanic stimulation) [1]: 250±46%
- LTP PPR (paired pulse ratio after LTP induction) [1, 4]: 2.3±0.22
- control PPR (paired pulse ratio before LTP induction) [1, 4]: 2.8±0.15
- PTP (post-tetanic potentiation) ([1]; peptide 50 μM in patch electrode, immediately following tetanic stimulation): 990±180%
- paired pulse ratio after LTP induction versus pretetanic ([1]; peptide in patch electrode): significantly reduced relative to pretetanic recording

Molecule: R2ctPO4: phosphorylated GluR2/3 peptide; same as SEQ ID NO: 1 except the serine is phosphorylated (NVYGIE[pS]VKI) [reference compound]
- LTP (potentiation of the EPSC after tetanic stimulation) [1]: 210±19%
- LTP PPR (paired pulse ratio after LTP induction) [1, 4]: 2.5±0.16
- control PPR (paired pulse ratio before LTP induction) [1, 4]: 3.0±0.18
- effect on tetanus induced LTP [1]: little effect on induction of LTP
- effect on tetanus induced LTP ([1]; listed as GluR2ctPO4): do not inhibit LTP
- displacement of labeled EphB2 from GRIP PDZ4-6 (GRIP PDZ4-6): unable to displace binding; also recorded: do not inhibit binding of EphB2 to GRIP

B1: EphB2-Fc fusion protein (Fc fusion, mouse, not shown: a dimerising Fc or GST)
chain (part 1 of 2): VEETLMDSTTATAELGWMVHPPSGWEEVSGYDENMNTIRTYQVCNVFESSQNNWLRTKFIRRRGAHRIHVEMKFSVRDCSSIPSVPGSCKETFNLYYYEADFDLATKTFPNWMENPWVKVDTIAADESFSQVDLGGRVMKINTEVRSFGPVSRNGFYLAFQDYGGCMSLIAVRVFYRKCPRIIQNGAIFQETLSGAESTSLVAARGSCIANAEEVDVPIKLYCNGDGEWLVPIGRCMCKAGFEAVENGTVCRGCPSGTFKANQGDEACTHCPINSRTTSEGATNCVCRNGYYRADLDPLDMPCTTIPSAPQAVISSVNETSLMLEWTPPRDSGGREDLVYNIICKSCGSGRGACTRCGDNVQYAPRQLGLTEPRIYISDLLAHTQYTFEIQAVNGVTDQSPFSPQFASVNITTNQAAPSAVSIMHQVSRTVDSITLSWSQPDQPNGVILDYELQYYEKELSEYNATAIKSPTNTVTVQGLKAGAIYVFQVRARTVAGYGRYSGKMYFQTMTEAEYQTSIKEKLPLIVGDIEGRMD
chain (part 2 of 2): HHHHH
- LTP after tetanic stimulation in the presence of EphB2-Fc [3]: 134%
- basal EPSC amplitude during bath application (5 µg/ml) [3]: 145%
- forskolin potentiation of mossy fiber EPSCs 30 mins after washout, after EphB2-Fc [3]: 118%
- post-tetanic potentiation [3]: 420%
- potentiation of baseline EPSC amplitudes on bath application [3]: 148%

B2: EphB2-Fc: mouse EphB2 (Met 1 to Lys 546), a linker, Human gamma heavy chain (Pro 100 to Lys 330) and (His)5 (protein)
chain (part 1 of 2): VEETLMDSTTATAELGWMVHPPSGWEEVSGYDENMNTIRTYQVCNVFESSQNNWLRTKFIRRRGAHRIHVEMKFSVRDCSSIPSVPGSCKETFNLYYYEADFDLATKTFPNWMENPWVKVDTIAADESFSQVDLGGRVMKINTEVRSFGPVSRNGFYLAFQDYGGCMSLIAVRVFYRKCPRIIQNGAIFQETLSGAESTSLVAARGSCIANAEEVDVPIKLYCNGDGEWLVPIGRCMCKAGFEAVENGTVCRGCPSGTFKANQGDEACTHCPINSRTTSEGATNCVCRNGYYRADLDPLDMPCTTIPSAPQAVISSVNETSLMLEWTPPRDSGGREDLVYNIICKSCGSGRGACTRCGDNVQYAPRQLGLTEPRIYISDLLAHTQYTFEIQAVNGVTDQSPFSPQFASVNITTNQAAPSAVSIMHQVSRTVDSITLSWSQPDQPNGVILDYELQYYEKELSEYNATAIKSPTNTVTVQGLKAGAIYVFQVRARTVAGYGRYSGKMYFQTMTEAEYQTSIKEKLPLIVGDIEGRMD
chain (part 2 of 2): HHHHH
modifications: left off: a dimerising Fc or GST
- LTP PPR [1, 5]: 2.2 ±0.2
- PTP (post-tetanic potentiation) [1, 5]: 420±85%
- control PPR [1, 5]: 2.5±0.3
- effect on LTP induction [1, 5]: inhibits subsequent tetanus induced LTP
- paired pulse ratio, effect [1, 5]: small, non-significant reduction in the baseline PPR; also recorded: not significantly reduced
- LTP (potentiation of EPSCs after tetanic stimulation) ([1]; Fc fusion protein): 134±13%
- increase in the basal EPSC amplitude ([1]; bath application 5 μg/ml for twenty minutes during baseline recording): 145±13%
- forskolin potentiation of mossy fiber EPSCs after pre-application of Fc fusion protein [2]: 118±10%
- effect on forskolin enhancement / mossy fiber transmission [2]: inhibits subsequent forskolin effects
- potentiation of baseline amplitudes ([2]; bath applied before forskolin): 148±19%

B3: ephrin-B1-Fc: mouse ephrin (Met 1 to Ser 229), a linker, Human gamma heavy chain (Pro 100 to Lys 330) and (His)5 (protein)
chain (part 1 of 2): ATPLAKNLEPVSWSSLNPKFLSGKGLVIYPKIGDKLDIICPRAEAGRPYEYYKLYLVRPEQAAACSTVLDPNVLVTCNKPHQEIRFTIKFQEFSPNYMGLEFKKYHDYYITSTSNGSLEGLENREGGVCRTRTMKIVMKVGQDPNAVTPEQLTTSRPSKESDNTVKTATQAPGRGSQGDSDGKHETVNQEEKSGPGAGGGGSGDSIEGRMD
chain (part 2 of 2): HHHHH
modifications: left off: a dimerising Fc or GST
- PTP (post-tetanic potentiation) [1, 5]: 430±100%
- effect on LTP induction [1, 5]: significantly impair LTP induction
- effect on basal synaptic transmission / baseline EPSC amplitudes [1, 5]: did not alter the baseline EPSC amplitudes; also recorded: does not affect basal transmission
- effect on post-tetanic potentiation / short-term plasticity [1, 5]: significantly impaired
- paired pulse ratio, effect [1, 5]: no significant difference in PPR
- LTP (potentiation of EPSCs after tetanic stimulation) ([1]; Fc fusion protein): 139±12%
- forskolin potentiation of mossy fiber EPSCs after pre-application of Fc fusion protein [2]: 219±15%
- effect on forskolin enhancement / mossy fiber transmission [2]: does not affect Forskolin enhancement

— patent publication US20040241754A1, “Modulating neuronal plasticity” (The Salk Institute for Biological Studies, priority 2003, published 2004)
